# Test results: patent publication US20260029420A1, “ANTI-CB2 ANTIBODIES AND THEIR USE IN A FLOW CYTOMETRY ASSAY TO MEASURE CELL SURFACE CB2 EXPRESSION” (Hoffmann-La Roche Inc., priority 2022, published 2026)
# Columns and labels:
# CHO-A2 mCB2 [1] = molecular target: T1, CHO-A2 mCB2 (Mus musculus, UniProt P47936); assay: Immunoprecipitation from whole cell lysates; assay type: binding; parameters: key: “−” no signal; “+”-“+++++” signal intensity; “+”-“+++++” signal intensity; “+”-“+++++” signal intensity; “+”-“+++++” signal intensity; “+”-“+++++” signal intensity; conditions: CHO-A2 mCB2 lysate
# T1 construct: expressed in transfected cells
# T1 sequence (P47936 whole entry): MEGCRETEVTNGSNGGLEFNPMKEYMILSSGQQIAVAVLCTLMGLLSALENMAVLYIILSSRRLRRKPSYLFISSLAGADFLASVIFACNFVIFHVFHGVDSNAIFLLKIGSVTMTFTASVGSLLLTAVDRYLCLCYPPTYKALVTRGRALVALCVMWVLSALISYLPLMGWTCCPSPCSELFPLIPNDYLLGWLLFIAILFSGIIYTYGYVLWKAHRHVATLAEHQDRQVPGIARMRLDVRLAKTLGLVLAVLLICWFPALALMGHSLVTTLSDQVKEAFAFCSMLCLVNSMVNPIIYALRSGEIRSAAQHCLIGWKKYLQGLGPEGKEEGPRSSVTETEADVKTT
# Procedure: (§1) The positive clones (Table 1) were further characterized by immunofluorescence (IF; Table 2), Western Blot (Table 3, 1) and Immune precipitation (Table 4, 2) on full length hCB2, hCB1, mCB2 stable-transfected CHO-cell lines in addition to the 2 pANITA constructs.
# (§2) For immunoprecipitation (IP), whole cell lysates were incubated with the respective antibodies. IP was performed according to established protocols and subsequent western blot as described herein above.
# CHODukx CRE hCB1 Cl.20 = molecular target: T2, CHODukx CRE hCB1 Cl.20 (Homo sapiens, UniProt P21554); assay: Immunoprecipitation from whole cell lysates; assay type: binding; parameters: key: “−” no signal; “+”-“+++++” signal intensity; “+”-“+++++” signal intensity; “+”-“+++++” signal intensity; “+”-“+++++” signal intensity; “+”-“+++++” signal intensity; conditions: CHODukx CRE hCB1 Cl.20 lysate
# T2 construct: expressed in transfected cells
# T2 sequence (P21554 whole entry): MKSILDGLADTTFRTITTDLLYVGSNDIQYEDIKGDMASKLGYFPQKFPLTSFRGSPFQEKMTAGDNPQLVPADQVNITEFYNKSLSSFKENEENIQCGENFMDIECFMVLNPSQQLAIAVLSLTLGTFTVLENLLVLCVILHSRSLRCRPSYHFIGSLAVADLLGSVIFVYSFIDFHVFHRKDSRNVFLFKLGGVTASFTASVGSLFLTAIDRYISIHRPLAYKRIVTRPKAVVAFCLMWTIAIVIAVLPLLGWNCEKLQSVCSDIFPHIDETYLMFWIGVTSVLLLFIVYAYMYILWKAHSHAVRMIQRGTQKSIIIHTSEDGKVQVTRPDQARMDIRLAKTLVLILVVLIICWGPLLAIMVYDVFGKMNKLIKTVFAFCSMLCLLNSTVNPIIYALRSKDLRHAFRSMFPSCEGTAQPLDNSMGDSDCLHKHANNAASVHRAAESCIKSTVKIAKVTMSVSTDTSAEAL
# Procedure: as §1, §2
# pANITA3.1 hCB2 (JB175) = molecular target: T3, pANITA3.1 hCB2 (JB175) (Homo sapiens, UniProt P34972); assay: Immunoprecipitation from whole cell lysates; assay type: binding; parameters: key to Immunoprecipitation signal intensity: “−” no signal; “+”-“++++” signal intensity; “+”-“++++” signal intensity; “+”-“++++” signal intensity; “+”-“++++” signal intensity
# T3 construct: expressed in transfected cells; host or cells: HEK293
# T3 sequence (P34972 with tags, fused parts or gaps): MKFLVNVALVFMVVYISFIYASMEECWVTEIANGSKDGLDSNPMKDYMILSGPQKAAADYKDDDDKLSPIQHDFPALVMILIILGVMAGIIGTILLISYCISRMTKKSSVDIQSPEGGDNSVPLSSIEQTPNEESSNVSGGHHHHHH
# Procedure: as §1, §2
# CHO-A2 mCB2 [2] = molecular target: T1, CHO-A2 mCB2; assay: Western blot of cell lysates; assay type: binding; parameters: key: “−” no signal; “+”-“+++++” signal intensity; “+”-“+++++” signal intensity; “+”-“+++++” signal intensity; “+”-“+++++” signal intensity; “+”-“+++++” signal intensity; conditions: CHO-A2 mCB2 lysate
# Procedure: as §1
# (§3) For Western blot analysis, cells were collected using enzyme free dissociation buffer (Cell dissociation buffer enzyme-free Hanks'-based, Gibco), and washed two times with PBS. To prepare cell lysate, 10^6 cells were lysed with 0.1 ml of lysis buffer (1% NP40, 10% glycerol, 2 mM EDTA, 137 mM NaCl, 20 mM TrisHCl, pH8, Protease Inhibitors) for 10 min on ice. The lysate was cleared by centrifugation at 20′000 g for 5 min. For SDS-PAGE cell lysate was resolved on precast 4-12% gradient gels (NuPAGE® Novex 4-12% Bis-Tris Gel, Invitrogen) with MES running buffer according to the manufacturer's directions. The separation of proteins was visualized by Colloidal Blue staining. The proteins were electrophoretically transferred to nitrocellulose membrane using a dry-blotting system (iBlot, Invitrogen). After blocking the membrane for 16 h in blocking buffer (5% Milk in PBS) at 4° C., specific proteins were detected with appropriate dilutions of mAbs in blocking buffer for 1 h at approximately 20° C. […]
# CHODukx CRE hCB2 Cl.90 = molecular target: T4, CHODukx CRE hCB2 Cl.90 (Homo sapiens, UniProt P34972); assay: Western blot of cell lysates; assay type: binding; parameters: key: “−” no signal; “+”-“+++++” signal intensity; “+”-“+++++” signal intensity; “+”-“+++++” signal intensity; “+”-“+++++” signal intensity; “+”-“+++++” signal intensity; conditions: CHODukx CRE hCB2 Cl.90 lysate
# T4 construct: expressed in transfected cells
# T4 sequence (P34972 whole entry): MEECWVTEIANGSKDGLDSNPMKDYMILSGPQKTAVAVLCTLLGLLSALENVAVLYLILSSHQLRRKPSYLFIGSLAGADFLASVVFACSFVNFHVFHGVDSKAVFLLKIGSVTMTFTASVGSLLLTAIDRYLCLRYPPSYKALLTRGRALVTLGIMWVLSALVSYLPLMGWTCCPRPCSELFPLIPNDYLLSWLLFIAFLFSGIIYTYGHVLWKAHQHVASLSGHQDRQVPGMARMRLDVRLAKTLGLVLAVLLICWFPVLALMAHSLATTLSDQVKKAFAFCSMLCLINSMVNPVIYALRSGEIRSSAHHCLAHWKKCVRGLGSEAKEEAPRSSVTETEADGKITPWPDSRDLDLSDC
# Procedure: as §1, §3
# [3] = tested on: pANITA3.1 ratGIPR (DB388); assay: Western blot of cell lysates; assay type: binding, rat; parameters: key to Western Blot signal intensity: “−” no signal; “+”-“+++++” signal intensity; “+”-“+++++” signal intensity; “+”-“+++++” signal intensity; “+”-“+++++” signal intensity; “+”-“+++++” signal intensity
# Procedure: as §1, §3
molecule,measurement,setting,value
"hCB2-1/622: murine IgG3 monoclonal anti-human CB2 antibody, VH SEQ ID NO: 1, VL SEQ ID NO: 2, HC SEQ ID NO: 3, LC SEQ ID NO: 4 (antibody) heavy: EVQLQQSGPELVKPGASVKISCKTSGYTFTEYTMHWVRQSHGKSLEWIGGIDRYNGDTYYNQKFKDKATLTVDRSSSTAYMELRSLTSEDSAVYFCARNGAMDYWGQGISVTVSSATTTAPSVYPLVPGCSDTSGSSVTLGCLVKGYFPEPVTVKWNYGALSSGVRTVSSVLQSGFYSLSSLVTVPSSTWPSQTVICNVAHPASKTELIKRIEPRIPKPSTPPGSSCPPGNILGGPSVFIFPPKPKDALMISLTPKVTCVVVDVSEDDPDVHVSWFVDNKEVHTAWTQPREAQYNSTFRVVSALPIQHQDWMRGKEFKCKVNNKALPAPIERTISKPKGRAQTPQVYTIPPPREQMSKKKVSLTCLVTNFFSEAISVEWERNGELEQDYKNTPPILDSDGTYFLYSKLTVDTDSWLQGEIFTCSVVHEALHNHHTQKNLSRSPGK light: DVVMTQTPLSLPVSLGDQASISCRSSQSLVHSNGNTYLHWFLQKPGQSPKLLIYKVSIRFSGVPDRFSGSGSGTDFTLKISRVEAEDLGVYFCSQSTHVPPLTFGAGTKLELKRADAAPTVSIFPPSSEQLTSGGASVVCFLNNFYPKDINVKWKIDGSERQNGVLNSWTDQDSKDSTYSMSSTLTLTKDEYERHNSYTCEATHKTSTSPIVKSFNRNEC",Immunoprecipitation signal intensity,CHO-A2 mCB2 [1],−
same,Immunoprecipitation signal intensity,CHODukx CRE hCB1 Cl.20,−
same,immunoprecipitation binding,pANITA3.1 hCB2 (JB175); hCB2,specifically binds
same,Immunoprecipitation signal intensity,pANITA3.1 hCB2 (JB175); pANITA3.1 hCB2 (JB175) lysate,++++
same,Western Blot signal intensity,CHO-A2 mCB2 [2],−
same,Western Blot signal intensity,CHODukx CRE hCB2 Cl.90,−
same,Western Blot signal intensity,[3]; pANITA3.1 ratGIPR (DB388) lysate,−
same,Western blot detection,[3]; rat GIPR,"no mCB2, hCB1 or rat GIPR was detected"
